Source: US20200171068A1, “COMPOSITIONS COMPRISING APTAMERS AND NUCLEIC ACID PAYLOADS AND METHODS OF USING THE SAME” (Children's National Medical Center, priority 2017, published 2020)
Blank lines part the entries; values can stand above or below the molecule they belong to.

Tested on: hematopoiesis
Format: in vivo, mouse
Procedure: The mice received intravenous injection of 670 pmol/20 g miR-26a or control chimera daily for 3 days. 150 mg/kg 5-FU was injected on day 2 of the chimera treatment. FIG. 2A is a graph showing the numbers of white blood cells (WBC) 10 days after 5-FU treatment. Data (mean+s.d.) were pooled from two experiments, involving a total of 6 mice per group. FIG. 2B is a graph showing the number of bone marrow (BM) cells 10 days after 5-FU treatment. Data (mean+s.d.) were pooled from two experiments, involving a total of 6 mice per group. FIG. 2C is (left) a representative picture of LSK population 5 days after 5-FU treatment with or without miR-26a chimera treatment; and (right) a graph showing the percentages of LSK population. Data (mean+s.d.) were pooled from two experiments, involving a total of 6 mice per group. FIG. 2D is a series of graphs showing apoptosis. Left, representative picture of Annexin V^+ in LSK population 5 days after 5-FU treatment. Right, the percentages of Annexin V^+ in the LSK population. Data (mean+s.d.) were pooled from two experiments, involving a total of 6 mice per group. *P<0.05, **P<0.01. FIG. 2E is a picture showing a putative miR-26a target site in the 3′UTR of mouse Bak1 (SEQ ID NO:19). Base pairs CU-GA -UACUUGAA (SEQ ID NO:20) of the Bak Sequence and its complementary basepairs are the sites with highly probability preferential conservation between mammals. The miR-26a sequence depicted is SEQ ID NO:21. FIG. 2F is a graph showing relative luciferase activity of reporter constructs containing the wild-type or mutant (mut) 3′-UTR of mouse Bak1 in HEK293 cells co-transfected with either miR-26a precursor (OE), miR-26a TuD inhibitor (TuD), or negative control (ctrl). Data were pooled from two experiments. FIG. 2G is a graph showing relative expression level of Bak1 mRNA in LSK population 5 days after 5-FU treatment. Data (mean+s.d.) were pooled from two experiments, involving a total of 6 mice per group. FIG. 2H is a graph showing that targeted mutation of the Bak1 gene increased survival of LSK in BM at day 5 after 150 mg/kg 5-FU treatments. Data shown are percent of LSK in BM (n=3 for Bak1^+/+ mice and n=4 for Bak1^−/− mice). […] of Bak1^+/+ and Bak1^−/− LSK in BM. Data shown percent of untreated, after normalization using means of LSK % from BM of two untreated Bak1^+/+ and Bak1^−/− mice as 100%. FIG. 2J is a graph showing the numbers of WBC 10 days after 150 mg/kg 5-FU treatments between Bak1^−/− mice and wild type mice. Data (mean+s.d.) were pooled from two experiments, involving a total of 7 mice per group. *P<0.05, **P<0.01.
For xenograft models, the NSG mice and BALB/c mice were subcutaneously injected with 2×10^6 viable MDA-MB-231 cells and TUBO cells in their right hind limbs, respectively. After the tumor grew to 1 cm in diameter, mice were randomly divided into the groups for each treatment. For no treatment control, 100 μl saline with 1% mouse serum was intravenously injected through tail vein. […] Tumor sizes were measured in two dimensions every 3 days. Tumor volume (V) was calculated using the following formula: V=(½) S^2×L (S. the shortest dimension; L, the longest dimension). Animals were euthanized when the tumor size was over 2 cm diameters, tumor ulcerated, or became necrotic. For chimera treatment in normal mice, C57BL/6 mice were treated with miR-26a chimera (670 pmol/20 g) everyday for 3 days by intravenous injection. At day 2, 150 mg/kg 5-FU and/or 120 mg/kg carboplatin was injected together with the chimera. Peripheral bloods were collected at day 5 and day 10 after the 5-FU treatment. Complete blood counts were measured by Hemavet 950FS (Drew Scientific, Miami Lakes, Fla., USA).
For aptamer binding assay, streptavidin-APC (Cat #554067) […] Bioscience, San Jose, Calif., USA) was used for detecting the biotin-conjugated aptamers by flow cytometry. Other cell targeting aptamer specific for Ramos cells (28) was used for negative control. […]

reduction in the LSK population (C57BL/6, mouse, in vivo, 5 days): ~10 fold | Bak1 expression in LSK cells (mouse, in vivo): massively induced
Molecule: O=c1[nH]cc(F)c(=O)[nH]1 [5-FU, 5-fluorouracil, reference compound]
percent of apoptotic (Annexin V+) LSK (mouse, in vivo): massively increased

B1: miR-26a chimera: mouse c-Kit DNA aptamer-C3-passenger RNA, passenger RNA-TEG-cholesterol and miR-26a-5p guide strand annealed (SEQ ID NO:6/7, 8, 9) (nucleic acid)
chain 1: GCTCAACGCGGGACGGCTCTCCCATTGAC
chain 2: CCUAUUCUGG
chain 3: GUUACUUGCACG
guide: UUCAAGUAAUCCAGGAUAGGCU
modifications: chemistry not fully specified
5-FU-induced myelosuppression (leukocyte counts, bone marrow cellularity) (670 pmol/20 g chimera i.v. daily for 3 days, 150 mg/kg 5-FU on day 2): significantly ameliorated myelosuppression | 5-FU-induced myelosuppression (WBC, RBC, PLT), chimera mixed with 5-FU (150 mg/kg 5-FU with 2 nmol/20 g chimera i.v. at same time, 5 and 10 days): protects mice against 5-FU-induced myelosuppression | prevention of 5-FU-induced reduction in the LSK population (5 days after 5-FU, chimera 670 pmol/20 g daily for 3 days): largely prevented | protection of LSK from 5-FU-induced apoptosis (5 days after 5-FU, chimera treatment): specifically protected | 5-FU-induced Bak elevation in LSK cells (mouse, in vivo): significantly diminished
